Here are results for four substances from article PMC9776037.

Experiment [1] addresses α2 portion of the human α2δ1 protein (voltage-sensitive calcium channel subunit) (human). Description: localized surface plasmon resonance (LSPR); α2 amide-coupled to gold triangular nanoprisms on glass; sensors incubated with 1 × 10^−16 to 1 × 10^−8 M PLN or PLN domains in PBS pH 7.2; Δλ_LSPR by UV-visible spectroscopy; KD from Hill-Langmuir fit with extrapolated Bmax.
Experiment [2] has the same target. Description: localized surface plasmon resonance (LSPR); α2-functionalized sensors incubated overnight with full-length PLN (10 nM) or PLN Dm III-2 (100 nM), no GBP; Δλ_LSPR.

By Kd is commonly meant the equilibrium constant for the complex coming apart. As to “Perlecan domain IV-2 (PLN Dm IV-2) (domain or fragment)”, in experiment [1], the Kd is 430 µM. For “Perlecan domain III-2, cysteine-free globular region (laminin IV-A2) (domain or fragment)”, the Kd in experiment [1] was 8e-05 µM. Besides, the Δλ LSPR in experiment [2] came out at 12.7 nm. “Perlecan domain IV-3 (PLN Dm IV-3) (domain or fragment)”: the Kd in experiment [1] is 280 µM.

In the case of “Perlecan domain IV-1 (PLN Dm IV-1) (domain or fragment)”, in experiment [1], the Kd was 0.14 µM.
